Target: T1, RNF31 PUB domain (Homo sapiens, UniProt Q96EP0)
T1 construct: MBP-TEV (N, cleaved yes); made in house; host or cells: E. coli BL21 (DE3) pLysS
T1 sequence (Q96EP0 1-179): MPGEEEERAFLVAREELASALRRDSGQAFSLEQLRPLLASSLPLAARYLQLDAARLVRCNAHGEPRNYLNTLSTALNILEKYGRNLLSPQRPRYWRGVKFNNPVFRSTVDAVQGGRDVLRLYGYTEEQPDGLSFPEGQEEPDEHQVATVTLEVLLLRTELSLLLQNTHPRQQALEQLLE
Test: Phage Library Screening with NGS, RNF31 PUB domain
Assay type: binding
Details: for Phage library screen NGS readout, Target Concentration 10 / Phage library screen NGS readout, Target Concentration 30 / Phage library screen NGS readout, Target Concentration 100 / Phage library screen NGS readout, Target Concentration 300 / Phage library screen NGS readout, Target Concentration 1000: RNF31 PUB domain clusters C41-C45; for Phage library screen NGS readout, BLANK: clusters C41-C45

[1] = target concentration 1000, first column
[2] = target concentration 1000, second column

DPAFAQCEVAAMVCTTY
Phage library screen NGS readout, Target Concentration 10: 0 | Phage library screen NGS readout, Target Concentration 30: 0 | Phage library screen NGS readout, Target Concentration 100: 0 | Phage library screen NGS readout, Target Concentration 300: 2 | Phage library screen NGS readout, Target Concentration 1000 [1]: 5 | Phage library screen NGS readout, Target Concentration 1000 [2]: 6 | Phage library screen NGS readout, BLANK (column 1 of 5): 0 | Phage library screen NGS readout, BLANK (column 2 of 5): 0 | Phage library screen NGS readout, BLANK (column 3 of 5): 0 | Phage library screen NGS readout, BLANK (column 4 of 5): 0 | Phage library screen NGS readout, BLANK (column 5 of 5): 0

DPAFDWCLYAADDCAET
Phage library screen NGS readout, Target Concentration 10: 1 | Phage library screen NGS readout, Target Concentration 30: 0 | Phage library screen NGS readout, Target Concentration 100: 0 | Phage library screen NGS readout, Target Concentration 300: 3 | Phage library screen NGS readout, Target Concentration 1000 [1]: 31 | Phage library screen NGS readout, Target Concentration 1000 [2]: 12 | Phage library screen NGS readout, BLANK (column 1 of 5): 0 | Phage library screen NGS readout, BLANK (column 2 of 5): 0 | Phage library screen NGS readout, BLANK (column 3 of 5): 0 | Phage library screen NGS readout, BLANK (column 4 of 5): 0 | Phage library screen NGS readout, BLANK (column 5 of 5): 1

DPAFHDCQFAAAVCSTY
Phage library screen NGS readout, Target Concentration 10: 0 | Phage library screen NGS readout, Target Concentration 30: 0 | Phage library screen NGS readout, Target Concentration 100: 0 | Phage library screen NGS readout, Target Concentration 300: 3 | Phage library screen NGS readout, Target Concentration 1000 [1]: 26 | Phage library screen NGS readout, Target Concentration 1000 [2]: 26 | Phage library screen NGS readout, BLANK (column 1 of 5): 0 | Phage library screen NGS readout, BLANK (column 2 of 5): 0 | Phage library screen NGS readout, BLANK (column 3 of 5): 0 | Phage library screen NGS readout, BLANK (column 4 of 5): 0 | Phage library screen NGS readout, BLANK (column 5 of 5): 0

DPAFMDCVFAAAVCATY
Phage library screen NGS readout, Target Concentration 10: 0 | Phage library screen NGS readout, Target Concentration 30: 0 | Phage library screen NGS readout, Target Concentration 100: 0 | Phage library screen NGS readout, Target Concentration 300: 2 | Phage library screen NGS readout, Target Concentration 1000 [1]: 8 | Phage library screen NGS readout, Target Concentration 1000 [2]: 8 | Phage library screen NGS readout, BLANK (column 1 of 5): 0 | Phage library screen NGS readout, BLANK (column 2 of 5): 1 | Phage library screen NGS readout, BLANK (column 3 of 5): 1 | Phage library screen NGS readout, BLANK (column 4 of 5): 0 | Phage library screen NGS readout, BLANK (column 5 of 5): 0

DPAFQFCVEAAVACSYY
Phage library screen NGS readout, Target Concentration 10: 0 | Phage library screen NGS readout, Target Concentration 30: 0 | Phage library screen NGS readout, Target Concentration 100: 0 | Phage library screen NGS readout, Target Concentration 300: 6 | Phage library screen NGS readout, Target Concentration 1000 [1]: 9 | Phage library screen NGS readout, Target Concentration 1000 [2]: 5 | Phage library screen NGS readout, BLANK (column 1 of 5): 0 | Phage library screen NGS readout, BLANK (column 2 of 5): 0 | Phage library screen NGS readout, BLANK (column 3 of 5): 0 | Phage library screen NGS readout, BLANK (column 4 of 5): 0 | Phage library screen NGS readout, BLANK (column 5 of 5): 4

DPAFTDCQLAAAVCMTY
Phage library screen NGS readout, Target Concentration 10: 0 | Phage library screen NGS readout, Target Concentration 30: 0 | Phage library screen NGS readout, Target Concentration 100: 3 | Phage library screen NGS readout, Target Concentration 300: 31 | Phage library screen NGS readout, Target Concentration 1000 [1]: 161 | Phage library screen NGS readout, Target Concentration 1000 [2]: 145 | Phage library screen NGS readout, BLANK (column 1 of 5): 1 | Phage library screen NGS readout, BLANK (column 2 of 5): 2 | Phage library screen NGS readout, BLANK (column 3 of 5): 0 | Phage library screen NGS readout, BLANK (column 4 of 5): 0 | Phage library screen NGS readout, BLANK (column 5 of 5): 0

DPAFWACLYAAEECVVD
Phage library screen NGS readout, Target Concentration 10: 0 | Phage library screen NGS readout, Target Concentration 30: 0 | Phage library screen NGS readout, Target Concentration 100: 0 | Phage library screen NGS readout, Target Concentration 300: 3 | Phage library screen NGS readout, Target Concentration 1000 [1]: 6 | Phage library screen NGS readout, Target Concentration 1000 [2]: 9 | Phage library screen NGS readout, BLANK (column 1 of 5): 1 | Phage library screen NGS readout, BLANK (column 2 of 5): 0 | Phage library screen NGS readout, BLANK (column 3 of 5): 0 | Phage library screen NGS readout, BLANK (column 4 of 5): 0 | Phage library screen NGS readout, BLANK (column 5 of 5): 1

DPAFWECMYAASDCDAS
Phage library screen NGS readout, Target Concentration 10: 0 | Phage library screen NGS readout, Target Concentration 30: 0 | Phage library screen NGS readout, Target Concentration 100: 1 | Phage library screen NGS readout, Target Concentration 300: 2 | Phage library screen NGS readout, Target Concentration 1000 [1]: 6 | Phage library screen NGS readout, Target Concentration 1000 [2]: 4 | Phage library screen NGS readout, BLANK (column 1 of 5): 1 | Phage library screen NGS readout, BLANK (column 2 of 5): 0 | Phage library screen NGS readout, BLANK (column 3 of 5): 0 | Phage library screen NGS readout, BLANK (column 4 of 5): 0 | Phage library screen NGS readout, BLANK (column 5 of 5): 2

DPAHANCQLAADVCSTY
Phage library screen NGS readout, Target Concentration 10: 0 | Phage library screen NGS readout, Target Concentration 30: 0 | Phage library screen NGS readout, Target Concentration 100: 0 | Phage library screen NGS readout, Target Concentration 300: 13 | Phage library screen NGS readout, Target Concentration 1000 [1]: 49 | Phage library screen NGS readout, Target Concentration 1000 [2]: 33 | Phage library screen NGS readout, BLANK (column 1 of 5): 1 | Phage library screen NGS readout, BLANK (column 2 of 5): 0 | Phage library screen NGS readout, BLANK (column 3 of 5): 0 | Phage library screen NGS readout, BLANK (column 4 of 5): 0 | Phage library screen NGS readout, BLANK (column 5 of 5): 0

DPAHDWCLYAAYDCRVY
Phage library screen NGS readout, Target Concentration 10: 0 | Phage library screen NGS readout, Target Concentration 30: 0 | Phage library screen NGS readout, Target Concentration 100: 1 | Phage library screen NGS readout, Target Concentration 300: 2 | Phage library screen NGS readout, Target Concentration 1000 [1]: 15 | Phage library screen NGS readout, Target Concentration 1000 [2]: 8 | Phage library screen NGS readout, BLANK (column 1 of 5): 0 | Phage library screen NGS readout, BLANK (column 2 of 5): 0 | Phage library screen NGS readout, BLANK (column 3 of 5): 0 | Phage library screen NGS readout, BLANK (column 4 of 5): 0 | Phage library screen NGS readout, BLANK (column 5 of 5): 0

DPAHTWCMYAAFDCFES
Phage library screen NGS readout, Target Concentration 10: 1 | Phage library screen NGS readout, Target Concentration 30: 0 | Phage library screen NGS readout, Target Concentration 100: 0 | Phage library screen NGS readout, Target Concentration 300: 1 | Phage library screen NGS readout, Target Concentration 1000 [1]: 9 | Phage library screen NGS readout, Target Concentration 1000 [2]: 4 | Phage library screen NGS readout, BLANK (column 1 of 5): 1 | Phage library screen NGS readout, BLANK (column 2 of 5): 2 | Phage library screen NGS readout, BLANK (column 3 of 5): 2 | Phage library screen NGS readout, BLANK (column 4 of 5): 0 | Phage library screen NGS readout, BLANK (column 5 of 5): 0

DPAIAQCMLAAQVCSTY
Phage library screen NGS readout, Target Concentration 10: 2 | Phage library screen NGS readout, Target Concentration 30: 0 | Phage library screen NGS readout, Target Concentration 100: 0 | Phage library screen NGS readout, Target Concentration 300: 5 | Phage library screen NGS readout, Target Concentration 1000 [1]: 54 | Phage library screen NGS readout, Target Concentration 1000 [2]: 34 | Phage library screen NGS readout, BLANK (column 1 of 5): 1 | Phage library screen NGS readout, BLANK (column 2 of 5): 0 | Phage library screen NGS readout, BLANK (column 3 of 5): 0 | Phage library screen NGS readout, BLANK (column 4 of 5): 0 | Phage library screen NGS readout, BLANK (column 5 of 5): 0

DPAIDACYDAAVMCTYV
Phage library screen NGS readout, Target Concentration 10: 0 | Phage library screen NGS readout, Target Concentration 30: 0 | Phage library screen NGS readout, Target Concentration 100: 0 | Phage library screen NGS readout, Target Concentration 300: 6 | Phage library screen NGS readout, Target Concentration 1000 [1]: 27 | Phage library screen NGS readout, Target Concentration 1000 [2]: 15 | Phage library screen NGS readout, BLANK (column 1 of 5): 0 | Phage library screen NGS readout, BLANK (column 2 of 5): 0 | Phage library screen NGS readout, BLANK (column 3 of 5): 0 | Phage library screen NGS readout, BLANK (column 4 of 5): 0 | Phage library screen NGS readout, BLANK (column 5 of 5): 4

DPAIQECLLAAATCWTY
Phage library screen NGS readout, Target Concentration 10: 0 | Phage library screen NGS readout, Target Concentration 30: 0 | Phage library screen NGS readout, Target Concentration 100: 0 | Phage library screen NGS readout, Target Concentration 300: 2 | Phage library screen NGS readout, Target Concentration 1000 [1]: 8 | Phage library screen NGS readout, Target Concentration 1000 [2]: 4 | Phage library screen NGS readout, BLANK (column 1 of 5): 0 | Phage library screen NGS readout, BLANK (column 2 of 5): 0 | Phage library screen NGS readout, BLANK (column 3 of 5): 0 | Phage library screen NGS readout, BLANK (column 4 of 5): 0 | Phage library screen NGS readout, BLANK (column 5 of 5): 0

From patent US20240376151A1, “STAPLED PEPTIDES AND METHODS THEREOF” (FOG PHARMACEUTICALS, INC., priority 2022, published 2024)
